Values quoted from earlier work, collected in patent publication US20060241020A1, “Protein tyrosine phosphatase inhibitors” (Applied Research Systems ARS Holdings N.V., priority 2002, published 2006).
Square brackets hold non-standard residues; d marks the D form. Ends that are not written are not given here. pY = N[C@@H](Cc1ccc(OP(=O)(O)O)cc1)C(=O)O

Molecular target: SHP1 (Homo sapiens, UniProt P29350)
Details: classification of Wang Peng et al. (68); cited from earlier work

SHP1, sequence (P29350 whole entry): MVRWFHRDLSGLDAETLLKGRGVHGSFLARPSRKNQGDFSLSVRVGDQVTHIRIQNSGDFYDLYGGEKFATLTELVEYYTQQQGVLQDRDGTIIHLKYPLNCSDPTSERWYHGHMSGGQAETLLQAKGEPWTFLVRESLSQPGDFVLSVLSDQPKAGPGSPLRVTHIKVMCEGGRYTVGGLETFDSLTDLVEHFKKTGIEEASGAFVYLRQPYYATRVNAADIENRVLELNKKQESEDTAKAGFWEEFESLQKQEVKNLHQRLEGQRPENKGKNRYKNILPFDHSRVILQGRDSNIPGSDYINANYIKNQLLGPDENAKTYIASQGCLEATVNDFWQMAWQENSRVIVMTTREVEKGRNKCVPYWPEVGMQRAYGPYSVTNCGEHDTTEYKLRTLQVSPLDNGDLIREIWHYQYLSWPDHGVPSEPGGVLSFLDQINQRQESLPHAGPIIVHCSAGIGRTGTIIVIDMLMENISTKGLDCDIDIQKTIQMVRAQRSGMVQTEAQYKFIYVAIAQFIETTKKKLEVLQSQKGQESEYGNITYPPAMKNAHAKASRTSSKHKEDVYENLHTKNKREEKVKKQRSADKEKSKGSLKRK

## RNNEFpYA-NH2 (RNNEF[pY]A-NH2; N-terminus assumed; SMILES C[C@H](NC(=O)[C@H](Cc1ccc(OP(=O)(O)O)cc1)NC(=O)[C@H](Cc1ccccc1)NC(=O)[C@H](CCC(=O)O)NC(=O)[C@H](CC(N)=O)NC(=O)[C@H](CC(N)=O)NC(=O)[C@@H](N)CCCNC(=N)N)C(N)=O) [SHP-1 peptide of Wang Peng et al., excluded from the invention]
  Substrate class for SHP-1: class 3
